Results from US20080027145A1, “Therapeutic Molecules and Methods for Generating and/or Selecting Same” (priority 2004, published 2008).

Tests used:
FLAG-tagged Bcl-xL = biological target: T1, FLAG-tagged Bcl-xL (Homo sapiens, UniProt Q07817); assay: Co-immunoprecipitation in transfected 293T cells; type: binding; conditions: tagged full-length proteins
T1 construct: expressed in transfected cells; host or cells: HEK293T
Text: (§1) Equivalent ^35S-labeled lysates harvested from 293T cells were immunoprecipitated with antibodies to the HA, FLAG (FL) or control (C) tags.
(§2) The maintenance, transfection and metabolic labeling of the human embryonic kidney (HEK) 293T cells with ^35S-methionine/cysteine (NEN) as well as co-immunoprecipitation have been described (Huang et al., Supra; Moriishi et al., Proc Natl Acad Sci USA 96:9683-9688, 1999; O'Conner et al., Supra). Briefly, equivalent TCA-precipitable lysates were immunoprecipiated using the mouse monoclonal antibodies to HA (HA.11; CRP), FLAG (M2; Sigma) and control Glu-Glu (CRP) tags. The proteins were resolved by SDS:PAGE, transferred onto nitrocellulose membranes and detected by fluorography (Amplify; Amersham Biosciences).
(§3) To verify the in vitro findings, interactions of selected pairs of the full-length N-terminally tagged proteins were investigated in mammalian cells by co-immunoprecipitation. […] The cells were metabolically labeled with ^35S-methionine/cysteine to permit semi-quantitative assessment of any interaction between co-associating radiolabeled proteins.
(§4) To verify the in vitro findings, selected pairs of the full-length N-terminally tagged proteins associated in mammalian cells were investigated by co-immunoprecipitation. […] The cells were metabolically labeled with ^35S-methionine/cysteine to permit semi-quantitative assessment of any interaction between the labeled proteins or interaction was gauged by the more sensitive western blotting.

FLAG-tagged Mcl-1 = biological target: T2, FLAG-tagged Mcl-1 (Mus musculus, UniProt P97287); assay: Co-immunoprecipitation in transfected 293T cells; type: binding; conditions: tagged full-length proteins
T2 construct: expressed in transfected cells; host or cells: HEK293T
T2 sequence (P97287 whole entry): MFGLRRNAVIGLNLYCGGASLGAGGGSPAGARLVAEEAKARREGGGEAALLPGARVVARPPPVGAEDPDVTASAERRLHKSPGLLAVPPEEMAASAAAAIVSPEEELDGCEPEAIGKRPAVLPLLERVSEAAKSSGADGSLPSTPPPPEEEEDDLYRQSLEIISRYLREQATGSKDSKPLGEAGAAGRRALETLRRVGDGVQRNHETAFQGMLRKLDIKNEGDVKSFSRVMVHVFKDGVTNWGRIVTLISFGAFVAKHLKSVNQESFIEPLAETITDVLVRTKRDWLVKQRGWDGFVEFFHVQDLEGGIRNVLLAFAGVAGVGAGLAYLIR
Text: as §1, §2, §3, §4

[1] = tested on: mouse embryonic fibroblasts (MEFs); assay: Killing of MEFs after retroviral expression, viability 24 hours after infection; type: cell-based; conditions: retroviral expression, 24 hours after infection
Experimental: FIG. 7 is a graphical representation showing that BH3-only proteins that bind selective targets have weak killing activity. (A) The affinities of BH3-only peptides for pro-survival proteins (tabulated in FIG. 3A) were inversely plotted to facilitate comparison of the patterns of BH3 binding. […] Immortalized 3T9 MEFs were infected with retroviruses expressing only GFP (control), or one of the BH3-only proteins and GFP. The viability of the infected (GFP^+ve) cells was determined by PI exclusion 24 hours after infection. The histograms represent means±1SD of at least 3 experiments. […] The filter was probed with a rat monoclonal anti-FLAG antibody. *Degradation product of Mcl-1. […] Viability of MEFs infected with retroviruses encoding the indicated proteins (GFP^+ve) was analyzed 24 hours after infection. The histograms represent means±1SD of at least 3 experiments. (E) Long-term survival of MEFs infected with BH3 expressing retroviruses. One hundred retrovirally-infected cells were plated and the absolute number of GFP^+ve colonies formed after 6 days scored. […] The data represent the average number of GFP^+ve colonies formed±1SD from at least 3 experiments. To assess the biological relevance of the selective binding, retroviral delivery was used to compare the ability of different BH3-only proteins to kill wild-type mouse embryonic fibroblasts (MEFs). To monitor expression of the introduced gene, a vector (pMIG) in which its expression is coupled via an internal ribosomal entry site (IRES) to that of green fluorescent protein (GFP) was used (Van Parijs et al., Immunity 11:281-288, 1999). The cells were efficiently infected (>90%) and the introduced BH3-only proteins were comparably expressed. Viability of the infected (GFP^+ve) cells was scored 24 hours after infection (FIGS. 7A, 7B) and in long-term colony assays (FIG. 7E). […] Thus, the neutralization of Mcl-1 by Noxa should be complemented by co-expression of a BadBH3 to neutralize Bcl-2 and Bcl-xL in MEFs (FIG. 8A).

Bcl-2 ΔC22 = biological target: T3, Bcl-2 ΔC22 (Homo sapiens, UniProt P10415); assay: Bcl-2 ΔC22
T3 construct: Human Bcl-2 (Acc. no. NP_000624; residues 1-217); made in house
T3 sequence (P10415 1-217, stated change not applied): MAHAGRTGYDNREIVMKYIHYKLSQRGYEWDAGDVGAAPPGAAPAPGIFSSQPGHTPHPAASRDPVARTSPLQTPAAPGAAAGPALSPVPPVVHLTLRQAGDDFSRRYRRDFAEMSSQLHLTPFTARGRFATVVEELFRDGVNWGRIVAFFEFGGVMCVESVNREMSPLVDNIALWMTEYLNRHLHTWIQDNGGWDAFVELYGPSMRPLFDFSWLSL
Experimental: (§5) Table printed on a drawing sheet, FIGURE 2A
Head of the field: Bcl-2 ΔC22
The patent's description of the figure: FIG. 2 is a graphical representation showing pro-apoptotic BH3-only and pro-survival Bcl-2-like proteins have distinctive interactions. (A) Using competitive binding assays, the IC50 (nM) for the indicated interactions were determined. The results shown are from representative experiments; the variation observed in multiple experiments was less than two-fold (using different chips or protein batches). (B) Relative binding affinities of interactions (tabulated in A) were inversely plotted. The BH3 binding profiles of pro-survival proteins are shown. […] Color reproductions are available from the patentees on request.
(§6) First copying reader's note: The table itself prints no unit; IC50 (nM) is printed only on the axis of panel B of the same figure, which plots the same values.
Where the first naming reader finds the target: head: Bcl-2 ΔC22

Bcl-xL ΔC24 = biological target: T4, Bcl-xL ΔC24 (Homo sapiens, UniProt Q07817); assay: Bcl-xL ΔC24
T4 construct: Human Bcl-xL (Acc. no. NP_612815; residues 1-209); GST (N, cleaved yes); made in house
T4 sequence (Q07817 1-209, stated change not applied): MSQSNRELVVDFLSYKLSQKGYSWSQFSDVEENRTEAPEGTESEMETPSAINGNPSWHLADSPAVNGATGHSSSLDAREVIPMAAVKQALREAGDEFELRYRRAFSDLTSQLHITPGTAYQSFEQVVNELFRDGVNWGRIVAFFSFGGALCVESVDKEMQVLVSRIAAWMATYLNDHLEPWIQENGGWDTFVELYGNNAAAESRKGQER
Experimental: as §5
Head of the field: Bcl-xL ΔC24
(§7) The patent's description of the figure: FIG. 2 is a graphical representation showing pro-apoptotic BH3-only and pro-survival Bcl-2-like proteins have distinctive interactions. (A) Using competitive binding assays, the IC50 (nM) for the indicated interactions were determined. The results shown are from representative experiments; the variation observed in multiple experiments was less than two-fold (using different chips or protein batches). (B) Relative binding affinities of interactions (tabulated in A) were inversely plotted. The BH3 binding profiles of pro-survival proteins are shown. In (C), the sequences of human Bcl-2 (residues 93-202), human Bcl-xL (86-195), human Bcl-w (42-151), mouse Mcl-1 (190-300) and mouse A1 (33-148) that form their BH3 binding grooves (α-helices 2 to 8; Hinds et al., EMBO J 22:1497-1507, 2003) were compared and presented as a phylogenetic tree. Color reproductions are available from the patentees on request.
as §6
Where the first naming reader finds the target: head: Bcl-xL ΔC24

Bcl-w ΔC29 = biological target: T5, Bcl-w ΔC29 (Homo sapiens, UniProt Q92843, A128E/C29S); assay: Bcl-w ΔC29
T5 construct: human Bcl-w (Acc. no. NP_004041; residues 1-164; C29S A128E); made in house
T5 sequence (Q92843 1-164 C29S/A128E): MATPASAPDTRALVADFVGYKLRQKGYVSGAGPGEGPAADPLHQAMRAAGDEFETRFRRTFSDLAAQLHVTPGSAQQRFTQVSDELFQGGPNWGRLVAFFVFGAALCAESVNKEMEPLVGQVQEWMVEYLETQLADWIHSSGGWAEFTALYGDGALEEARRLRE
Experimental: as §5, §7, §6

A1 ΔC20 = biological target: T6, A1 ΔC20 (Mus musculus, UniProt Q07440); assay: A1 ΔC20
T6 construct: mouse A1 (Acc. no. NP_033872; residues 1-152); GST (N, cleaved yes); made in house
T6 sequence (Q07440 1-152, stated change not applied): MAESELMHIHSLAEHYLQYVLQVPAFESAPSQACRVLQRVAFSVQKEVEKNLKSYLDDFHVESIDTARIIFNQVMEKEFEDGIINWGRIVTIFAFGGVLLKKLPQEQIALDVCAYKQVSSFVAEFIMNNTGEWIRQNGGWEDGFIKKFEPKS
Experimental: as §5
Head of the field: A1 ΔC20
as §7, §6
Where the first naming reader finds the target: head: A1 ΔC20

Mcl-1 ΔN151 ΔC23 = biological target: T7, Mcl-1 ΔN151 ΔC23 (Mus musculus, UniProt P97287); assay: Mcl-1 ΔN151 ΔC23
T7 construct: mouse Mcl-1 (Acc. no. NP_031588; residues 152-308); GST (N, cleaved yes); made in house
T7 sequence (P97287 152-308, stated change not applied): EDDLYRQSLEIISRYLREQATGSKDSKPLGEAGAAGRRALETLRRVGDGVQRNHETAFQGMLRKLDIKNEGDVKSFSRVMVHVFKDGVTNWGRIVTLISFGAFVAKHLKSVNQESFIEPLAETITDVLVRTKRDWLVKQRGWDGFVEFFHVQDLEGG
Experimental: as §5
Head of the field: Mcl-1 ΔN151 ΔC23
as §7, §6
Where the first naming reader finds the target: head: Mcl-1 ΔN151 ΔC23

[2] = tested on: mouse embryonic fibroblasts (MEFs); assay: Long-term colony assay of retrovirally infected MEFs; type: cell-based; conditions: colonies after 6 days
Experimental: FIG. 7 is a graphical representation showing that BH3-only proteins that bind selective targets have weak killing activity. (A) The affinities of BH3-only peptides for pro-survival proteins (tabulated in FIG. 3A) were inversely plotted to facilitate comparison of the patterns of BH3 binding. […] Immortalized 3T9 MEFs were infected with retroviruses expressing only GFP (control), or one of the BH3-only proteins and GFP. The viability of the infected (GFP^+ve) cells was determined by PI exclusion 24 hours after infection. The histograms represent means±1SD of at least 3 experiments. […] The filter was probed with a rat monoclonal anti-FLAG antibody. *Degradation product of Mcl-1. […] Viability of MEFs infected with retroviruses encoding the indicated proteins (GFP^+ve) was analyzed 24 hours after infection. The histograms represent means±1SD of at least 3 experiments. (E) Long-term survival of MEFs infected with BH3 expressing retroviruses. One hundred retrovirally-infected cells were plated and the absolute number of GFP^+ve colonies formed after 6 days scored. […] The data represent the average number of GFP^+ve colonies formed±1SD from at least 3 experiments. […] Viability of the infected (GFP^+ve) cells was scored 24 hours after infection (FIGS. 7A, 7B) and in long-term colony assays (FIG. 7E).

T1 sequence (Q07817 whole entry): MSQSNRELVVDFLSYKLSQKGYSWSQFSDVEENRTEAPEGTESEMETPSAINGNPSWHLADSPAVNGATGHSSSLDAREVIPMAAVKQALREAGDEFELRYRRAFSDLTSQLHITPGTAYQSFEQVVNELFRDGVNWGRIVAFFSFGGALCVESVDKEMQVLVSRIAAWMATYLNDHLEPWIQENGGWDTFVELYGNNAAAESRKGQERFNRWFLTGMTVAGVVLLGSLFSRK

| Substance | interaction with Mcl-1 by co-immunoprecipitation (FLAG-tagged Mcl-1) | killing of MEFs [1] | IC50 (A1 ΔC20) [nM] | also measured |
| --- | --- | --- | --- | --- |
| Noxa m3: Noxa BH3 with K35E and F32I expressed in cells (Bims NoxaBH3 m3 in FIG. 9D) (PAELEVECATQLRRIGDELNFRQKLL) | binds | more potent killer than wild-type Noxa |  | interaction with Bcl-xL by co-immunoprecipitation (FLAG-tagged Bcl-xL): bound |
| Hrk: BH3-only protein Hrk expressed from retrovirus in MEFs |  |  | 46 | IC50 (Bcl-2 ΔC22): 320 nM; IC50 (Bcl-xL ΔC24): 3.7 nM; IC50 (Bcl-w ΔC29): 49 nM |
| Puma: full-length human BH3-only protein Puma expressed in cells [listing 1 of 2 here] |  |  | 5.7 | IC50 (Mcl-1 ΔN151 ΔC23): 5 nM |
| Puma: full-length human BH3-only protein Puma expressed in cells [listing 2 of 2 here] | well | soon died |  | long-term survival, GFP+ve colonies [2]: failed to generate colonies |
